Numbering of substitutions follows the chain as printed. Names and notes keep the numbering of the source. Blank lines part the entries; values can stand above or below the binder they belong to.
How the values were obtained:
[1] = molecular target: T1, rHuman EGF R/Fc Chimera, CF (human, UniProt P00533 25-645); experiment: ECL multispot (MSD) assay, antigen spotted on the plate, Fab in solution; blank spot of the same well 331
T1 construct: Bought from R&D Systems; also called epidermal growth factor receptor; Fc part of the bought chimera not given

[2] = molecular target: T2, rHuman ErbB2/Fc Chimera, CF (human, UniProt P04626 23-652); experiment: as above
T2 construct: Bought from R&D Systems; also called human epidermal growth factor 2 receptor; Fc part of the bought chimera not given

[3] = molecular target: T3, rHuman IGF-1 sR, (IGF-1 sR), CF (human, UniProt P08069 31-932); experiment: as above
T3 construct: Bought from R&D Systems as a soluble receptor; also called insulin-like growth factor-1 soluble receptor
Method: (§1) An 150 μl aliquot of 1% Bovine Serum Albumin (BSA) in Tris-buffered Saline Tween (TBST) was added to each well and allowed to incubate for 30 min at 20° C. followed by washing and tap drying to completely remove any residual solution. Subsequently, a 12.5 μl aliquot of 1% BSA TBST was added to each well followed by the addition of a 12.5 μl aliquot of a purified Fab. The plate was sealed and incubated for 1 hour at 20° C. with shaking
(§2) TAG-detection antibody at 25 μl was added to each well and allowed to incubate for 1 hour at 20° C. with shaking. Finally, 15 μl of Read Buffer P with Surfactant (Cat # R92PC-1, Meso Scale Discovery) was added to each well. The electrochemiluminescence was measured using a Sector Imager 2400 (Meso Scale Discovery). Data was analyzed by comparing the ECL signals for an antigen to the blank of each well. A signal to blank ratio of 4 or more was considered a “Hit” Fab.

[4] = molecular target: T4, rHuman Notch-1/Fc Chimera, CF (human, UniProt P46531 19-526); experiment: as above
T4 construct: Bought from R&D Systems; Fc part of the bought chimera not given

[5] = molecular target: T5, rHuman Erythropoietin R/Fc Chimera, CF (human, UniProt P19235 25-250); experiment: as above
T5 construct: Bought from R&D Systems; also called EPO R; EPO R/Fc; Fc part of the bought chimera not given
T5 sequence (looked up): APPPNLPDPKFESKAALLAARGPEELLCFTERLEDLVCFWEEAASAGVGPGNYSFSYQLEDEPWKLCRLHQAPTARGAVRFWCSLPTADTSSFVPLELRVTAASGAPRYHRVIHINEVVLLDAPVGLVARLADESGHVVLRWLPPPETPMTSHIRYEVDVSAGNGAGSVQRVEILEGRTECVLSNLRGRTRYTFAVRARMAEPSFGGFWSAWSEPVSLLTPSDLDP

Recombinant Human DLL4 [6] = molecular target: T6, Recombinant Human DLL4 (human, UniProt Q9NR61 27-524); experiment: as above
T6 construct: Bought from R&D Systems; also called delta-like protein 4; rHuman DLL4
Method: as §1, §2

[7] = molecular target: T1, rHuman EGF R/Fc Chimera, CF; experiment: ECL multispot (MSD) assay, antigen spotted on the plate, Fab in solution; blank spot of the same well 231
Method: as §1, §2

[8] = molecular target: T7, rHuman CD44/Fc Chimera, CF (human, UniProt P16070 21-220); experiment: as above
T7 construct: Bought from R&D Systems; Fc part of the bought chimera not given

[9] = molecular target: T2, rHuman ErbB2/Fc Chimera, CF; experiment: as above
Method: as §1, §2

[10] = molecular target: T3, rHuman IGF-1 sR, (IGF-1 sR), CF; experiment: as above
Method: as §1, §2

[11] = molecular target: T8, rHuman HGF R/c-MET/Fc Chimera, CF (human, UniProt P08581 25-932); experiment: as above
T8 construct: Bought from R&D Systems; also called HGF R/Fc; hepatocyte growth factor receptor; Fc part of the bought chimera not given

[12] = molecular target: T4, rHuman Notch-1/Fc Chimera, CF; experiment: as above
Method: as §1, §2

[13] = molecular target: T5, rHuman Erythropoietin R/Fc Chimera, CF; experiment: as above
Method: as §1, §2

Recombinant Human DLL4 [14] = molecular target: T6, Recombinant Human DLL4; experiment: as above
Method: as §1, §2

[15] = molecular target: T9, rHuman P-Cadherin/Fc Chimera, CF (human, UniProt P22223 108-654); experiment: as above
T9 construct: Bought from R&D Systems; Fc part of the bought chimera not given

[16] = molecular target: T1, rHuman EGF R/Fc Chimera, CF; experiment: ECL multispot (MSD) assay, antigen spotted on the plate, Fab in solution; blank spot of the same well 407
Method: as §1, §2

[17] = molecular target: T7, rHuman CD44/Fc Chimera, CF; experiment: as above
Method: as §1, §2

[18] = molecular target: T2, rHuman ErbB2/Fc Chimera, CF; experiment: as above
Method: as §1, §2

[19] = molecular target: T3, rHuman IGF-1 sR, (IGF-1 sR), CF; experiment: as above
Method: as §1, §2

[20] = molecular target: T8, rHuman HGF R/c-MET/Fc Chimera, CF; experiment: as above
Method: as §1, §2

[21] = molecular target: T4, rHuman Notch-1/Fc Chimera, CF; experiment: as above
Method: as §1, §2

[22] = molecular target: T5, rHuman Erythropoietin R/Fc Chimera, CF; experiment: as above
Method: as §1, §2

Recombinant Human DLL4 [23] = molecular target: T6, Recombinant Human DLL4; experiment: as above
Method: as §1, §2

[24] = molecular target: T9, rHuman P-Cadherin/Fc Chimera, CF; experiment: as above
Method: as §1, §2

[25] = molecular target: T1, rHuman EGF R/Fc Chimera, CF; experiment: ECL multispot (MSD) assay, antigen spotted on the plate, Fab in solution; blank spot of the same well 284
Method: as §1, §2

[26] = molecular target: T7, rHuman CD44/Fc Chimera, CF; experiment: as above
Method: as §1, §2

[27] = molecular target: T2, rHuman ErbB2/Fc Chimera, CF; experiment: as above
Method: as §1, §2

[28] = molecular target: T3, rHuman IGF-1 sR, (IGF-1 sR), CF; experiment: as above
Method: as §1, §2

[29] = molecular target: T8, rHuman HGF R/c-MET/Fc Chimera, CF; experiment: as above
Method: as §1, §2

[30] = molecular target: T4, rHuman Notch-1/Fc Chimera, CF; experiment: as above
Method: as §1, §2

Recombinant Human DLL4 [31] = molecular target: T6, Recombinant Human DLL4; experiment: as above
Method: as §1, §2

[32] = molecular target: T9, rHuman P-Cadherin/Fc Chimera, CF; experiment: as above
Method: as §1, §2

T8 sequence (P08581 25-932, change not shown): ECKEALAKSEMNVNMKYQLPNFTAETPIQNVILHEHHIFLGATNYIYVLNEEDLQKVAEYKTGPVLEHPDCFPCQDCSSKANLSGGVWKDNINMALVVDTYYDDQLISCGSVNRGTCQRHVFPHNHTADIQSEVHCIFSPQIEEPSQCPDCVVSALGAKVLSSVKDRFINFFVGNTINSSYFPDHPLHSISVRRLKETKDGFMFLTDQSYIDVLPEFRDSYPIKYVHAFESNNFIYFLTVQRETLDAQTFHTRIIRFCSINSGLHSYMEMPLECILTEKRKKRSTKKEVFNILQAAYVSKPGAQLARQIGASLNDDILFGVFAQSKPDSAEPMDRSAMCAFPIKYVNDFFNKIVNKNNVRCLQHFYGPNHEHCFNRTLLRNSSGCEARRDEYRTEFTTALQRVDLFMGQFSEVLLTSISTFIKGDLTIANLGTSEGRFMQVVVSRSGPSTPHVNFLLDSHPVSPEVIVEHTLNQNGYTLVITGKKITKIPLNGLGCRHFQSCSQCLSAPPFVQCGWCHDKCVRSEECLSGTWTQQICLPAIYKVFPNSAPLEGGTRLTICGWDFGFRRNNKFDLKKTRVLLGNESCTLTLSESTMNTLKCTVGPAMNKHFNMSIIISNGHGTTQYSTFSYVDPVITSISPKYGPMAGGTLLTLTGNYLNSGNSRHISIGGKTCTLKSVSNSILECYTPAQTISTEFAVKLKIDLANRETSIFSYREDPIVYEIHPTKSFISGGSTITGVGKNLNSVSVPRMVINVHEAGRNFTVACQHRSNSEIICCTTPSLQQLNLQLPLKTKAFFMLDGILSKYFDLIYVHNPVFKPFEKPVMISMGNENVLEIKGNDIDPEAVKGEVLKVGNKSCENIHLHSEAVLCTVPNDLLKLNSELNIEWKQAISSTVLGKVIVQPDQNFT

- ECL signal [1]: 297
- ECL signal [2]: 313
- ECL signal [3]: 367
- ECL signal [4]: 460
- ECL signal [5]: 441
- ECL signal (Recombinant Human DLL4 [6]): 171000
B1: Fab VH1-46_IGHD6-6*01_IGHJ1*01 S102A/S103P/S104F/H111F (APFF) & L6_IGKJ1*01 S31E (Fab, V domains shown)
VH: QVQLVQSGAEVKKPGASVKVSCKASGYTFTSYYMHWVRQAPGQGLEWMGIINPSGGSTSYAQKFQGRVTMTRDTSTSTVYMELSSLRSEDTAVYYCAREEYAPFSAEYFQFWGQGTLVTVSS
VL: EIVLTQSPATLSLSPGERATLSCRASQSVSEYLAWYQQKPGQAPRLLIYDASNRATGIPARFSGSGSGTDFTLTISSLEPEDFAVYYCQQRSNWPPWTFGQGTKVEIKR
notes: Tested as an E. coli Fab; The heavy chain carries CH1 with His6 and Flag tags from plasmid A, the light chain a kappa CL from plasmid C; also called APFF / S31E; H:APFF & L6_IGKJ1*01 S31E

- ECL signal [7]: 391
- ECL signal [8]: 381
- ECL signal [9]: 311
- ECL signal [10]: 301
- ECL signal [11]: 378
- ECL signal [12]: 426
- ECL signal [13]: 414
- ECL signal (Recombinant Human DLL4 [14]): 65500
- ECL signal [15]: 384
B2: Fab VH1-46_IGHD6-6*01_IGHJ1*01 S102A/S103P/S104F/H111F (APFF) & L6_IGKJ1*01 S31G (Fab, V domains shown)
VH: B1 VH
VL: B1 VL with E31G
notes: Tested as an E. coli Fab; The heavy chain carries CH1 with His6 and Flag tags from plasmid A, the light chain a kappa CL from plasmid C; also called APFF / S31G; H:APFF & L6_IGKJ1*01 S31G

- ECL signal [16]: 390
- ECL signal [17]: 438
- ECL signal [18]: 392
- ECL signal [19]: 415
- ECL signal [20]: 329
- ECL signal [21]: 383
- ECL signal [22]: 548
- ECL signal (Recombinant Human DLL4 [23]): 165000
- ECL signal [24]: 379
B3: Fab VH1-46_IGHD6-6*01_IGHJ1*01 S102A/S103P/S104F/H111F (APFF) & L6_IGKJ1*01 S31Q (Fab, V domains shown)
VH: B1 VH
VL: B1 VL with E31Q
notes: Tested as an E. coli Fab; The heavy chain carries CH1 with His6 and Flag tags from plasmid A, the light chain a kappa CL from plasmid C; also called APFF / S31Q; H:APFF & L6_IGKJ1*01 S31Q

- ECL signal [25]: 320
- ECL signal [26]: 445
- ECL signal [27]: 236
- ECL signal [28]: 293
- ECL signal [29]: 197
- ECL signal [30]: 351
- ECL signal (Recombinant Human DLL4 [31]): 188000
- ECL signal [32]: 361
B4: Fab VH1-46_IGHD6-6*01_IGHJ1*01 S102A/S103P/S104F/H111F (APFF) & L6_IGKJ1*01 S31Y (Fab, V domains shown)
VH: B1 VH
VL: B1 VL with E31Y
notes: Tested as an E. coli Fab; The heavy chain carries CH1 with His6 and Flag tags from plasmid A, the light chain a kappa CL from plasmid C; also called APFF / S31Y; H:APFF & L6_IGKJ1*01 S31Y
